Measurements reported in paper PMC4387078.

Tests used:
[1] = substrate: NCCc1ccc(O)c(O)c1; experiment: spectrophotometric laccase assay, product formation; type: biochemical, Trametes versicolor; conditions: pH for this enzyme not stated
[2] = substrate: Oc1ccc(O)cc1; experiment: as above; type: biochemical, Trametes versicolor; conditions: pH for this enzyme not stated
purified protein [3] = substrate: O=C1O[C@H]([C@@H](O)CO)C(O)=C1O; experiment: purified protein; conditions: 0.1 M sodium phosphate
[4] = substrate: NCCc1ccc(O)c(O)c1; experiment: spectrophotometric laccase assay, product formation; type: biochemical, Drosophila melanogaster; conditions: pH 7.0
[5] = substrate: Oc1ccc(O)cc1; experiment: as above; type: biochemical, Drosophila melanogaster; conditions: pH 7.0
purified protein [6] = substrate: O=C1O[C@H]([C@@H](O)CO)C(O)=C1O; experiment: purified protein; type: biochemical, Anopheles gambiae; conditions: 0.1 M sodium phosphate, pH 7.0, allosteric sigmoidal fit
[7] = substrate: NCCc1ccc(O)c(O)c1; experiment: spectrophotometric laccase assay, product formation; type: biochemical, Anopheles gambiae; conditions: pH 7.0
[8] = substrate: Oc1ccc(O)cc1; experiment: as above; type: biochemical, Anopheles gambiae; conditions: pH 7.0
[9] = pH 7.0, allosteric sigmoidal fit

B1: TvLac-α (Trametes versicolor) (protein)
chain: AIGPVASLVVANAPVSPDGFLRDAIVVNGVVPSPLITGKKGDRFQLNVDDTLTNHSMLKSTSIHWHGFFQAGTNWADGPAFVNQCPIASGHSFLYDFHVPDQAGTFWYHSHLSTQYCDGLRGPFVVYDPKDPHASRYDVDNESTVITLTDWYHTAARLGPRFPLGADATLINGLGRSASTPTAALAVINVQHGKRYRFRLVSISCDPNYTFSIDGHNLTVIEVDGINSQPLLVDSIQIFAAQRYSFVLNANQTVGNYWVRANPNFGTVGFAGGINSAILRYQGAPVAEPTTTQTTSVIPLIETNLHPLARMPVPGSPTPGGVDKALNLAFNFNGTNFFINNATFTPPTVPVLLQILSGAQTAQDLLPAGSVYPLPAHSTIEITLPATALAPGAPHPFHLHGHAFAVVRSAGSTTYNYNDPIFRDVVSTGTPAAGDNVTIRFQTDNPGPWFLHCHIDFHLDAGFAIVFAEDVADVKAANPVPKAWSDLCPIYDGLSEANQ
B1 showed a Km [1] of 0.055 ± 0.005 mM, a kcat [1] of 11.5 ± 0.18 s⁻¹ and a kcat/Km [1] of 210000 M⁻¹ s⁻¹. The Km [2] was 0.038 ± 0.006 mM, the kcat [2] was 32.7 ± 1.22 s⁻¹ and the kcat/Km [2] was 861000 M⁻¹ s⁻¹.

B2: AgMCO3 (Anopheles gambiae) (protein)
chain: QSWLNTLLEQSNGTLDVSTFPGEQCLRECDNTQPRICHFSWTMEHYHVMGPACRDCAKGNHTDCYHPACITADGVERGVMSLNRKIPGPTISVCRHDLIVVDITNAMAGTSAAIHWHGLHQRATPYMDGVPFITQCPIGFGNTFRYAFLATEPGTQFYHSHSGHHKVNGHYGALIVREPKRVDPNGDLYHYDTPAHVILGSDWMHIDGEMFMPGLPSAGGIMPINLLINGKGTYHDPKKNETTQTPLEVYTVRRGARFRFRFINAASHVCPLQLQIEDHMMEVIASDSFHLQPRKVDTLVSTSGERYDFVLEANGVKDTYWVRLRSLGPCADLQLEQFAVLRYTTGPFINDAFPTGAPPTYEEPFRNVATANHPNATCGRPEFGDYCITDFQAYDTDEDVINGVPDHQLTFGFYNYPVSFESMFESNRYEHYMNIYGSVMMQGAINNISLAYPPFSLLTQPEKIRDDTFCDEDNRPDSCSDRQLCTCTHRVKINLGDIVELYILDLTPSVNDLNHPFHLHGYQMFVMEMSQDRRVPITLEIAQNIARQRLLSRNTVALPPRKDTVSIPSRGYARVRFRADNPGFWLMHCHYEWHTAVGMALVLQVGETSEMVKAPADFPKCDSYTPAVGHLLQGSL
For B2, the K0.5 (purified protein [3]; pH 7.0, Michaelis-Menten fit) was 0.64 ± 0.26 mM, the kcat (purified protein [3]; pH 7.0, Michaelis-Menten fit) was 2.47 s⁻¹ and the kcat/Km (purified protein [3]; pH 7.0, Michaelis-Menten fit) was 3880 M⁻¹ s⁻¹.

B3: DmMCO1T (Drosophila melanogaster) (protein)
chain: DIWTAEWYRNHPCNRDCQVGAEPMTCRYKFVVEWYQTFSKACYDCPRNLTDCSRPHCVMGDGLERSITVVNRMMPGPAIEVCEGDEIVVDVKNHLLGESTSIHWHGLHQKKTPYMDGVPHITQCPITPHATFRYSFPADLSGTHFWHSHTGMQRGDGVFGALIIRKPKTAEPHGGLYDFDLSEHVMIVQDWIHDTGASIFSYHHHSRGDNKPHNLLVNGKGRYYNRIWAEAKQAHRRAEERTTQPVEPLPKSQVDFVQTLPRQARLAKTNTTKLFPVNSRQKRGNLNEIPLELVPHQIYTVRRGFRYRFRIINAEYLNCPIVVSIDGHNLTAINSDGFDIEAMDVGSIVTYSGERFDFVLNANLEVGNYWIRLKGLMDCSEVFTSAFQVAILRYEGAPDEEPTAELSYGHKAEGIELNVMNRGPGYPDTKTVAEMRALPIYDHVSGIDHDTLKPEADYKFFIYYDFYTKNNPDFHDKDLYAMDMEMTQQNRLYTPQLNHITLNFPSLALLPSRSQLKDSDFCNETSLMDQGIDCRQEFCKCHHVLQVPLGAVVEMIIVDEGFQYYANHPFHLHGNAFRVMGLERLGENVTVEMIKQLDQFNLLKRNLDNPPVKDTVTIPDGGYTIIRFEASNPGYWLFHCHIEFHAEIGMALVFKVGNDDQMVPVPENFPTCGDYNPDLRSDGGTTEDSGSSKPITATPPNTGGGGSG
B3 was tested, and the Km [4] was 7.0 ± 0.93 mM, the kcat [4] was 0.317 ± 0.0183 s⁻¹ and the kcat/Km [4] was 50 M⁻¹ s⁻¹. For the same protein, the Km [5] was 14.4 ± 0.91 mM, the kcat [5] was 1.03 ± 0.035 s⁻¹ and the kcat/Km [5] was 66.7 M⁻¹ s⁻¹. It also gave a K0.5 (purified protein [3]; [9]) of 0.29 ± 0.05 mM, a kcat (purified protein [3]; [9]) of 42.8 ± 5.25 s⁻¹ and a kcat/Km (purified protein [3]; [9]) of 147000 M⁻¹ s⁻¹.

B4: AgMCO1T (Anopheles gambiae) (protein)
chain: VEPEEGVDFYEELSYDNHPCKRACTLGRKPETCYYRFRLEWYRTLSKACYNCPYNATDCERPHCITGDGVRRNVAVINRMMPGPAIEVCENDIIVVDVENHLMGESTTIHWHGLHQRRTPYMDGVPHVSQCPISPGTTFRYTFRADNPGTHFWHSHTGMQRGDGAFGALIIRKDNDIQELLYDHDLSEHVITVQDWGHEQGVSLFASHHHSTGDNKPPNLLINGRGKYFQRFAKTTPLTTTTTSTEEPALEPETIMAVEPESTTLMEELPTTTVPITDAITPDDTELLQASSNTNLKTVLRAEEVRHRTKRQSRTVNFNAIVVPESKHIPLKVFHVDKGRRYRFRLINAEFLNCPVELSIENHNLTVIASDGFGIQPLEDLGSFVSYAGERFDFIVKANQPIGNYLIRFRGLMDCDERFTSAYQFAVLRYRGAPTDTEYESWPPYDYEAPGVQLNSLNRGPGAENVITIAETSALDQEDLLLLRNETDYKFYVYYDFYGKDNPHFHVPSLYGFQQVVNNTNRLYTPQLNHISMRMPPVPFLPGKDVLDESQFCNETSVRDRNCRQEFCECSHVLQIPLHATVEMVMIDEGFTFDANHPFHLHGHAFRVVGMDRVSRNTTIEDIRRMDEEGRLPRRLKRAPIKDTVTIPDGGYTIIRFIANNPGYWLFHCHIEFHAEIGMSLVLKVGDSSEMLPAPANFPTCYDFKPKLGQLGSGGA
Work on B4 yielded a K0.5 (purified protein [6]) of 0.12 ± 0.02 mM, a kcat (purified protein [6]) of 15.3 ± 1.4 s⁻¹ and a kcat/Km (purified protein [6]) of 126000 M⁻¹ s⁻¹. It also gave a Km [7] of 35.2 ± 3.59 mM, a kcat [7] of 0.258 ± 0.0183 s⁻¹ and a kcat/Km [7] of 6.67 M⁻¹ s⁻¹. It also gave a Km [8] of 31.9 ± 3.75 mM, a kcat [8] of 1.58 ± 0.13 s⁻¹ and a kcat/Km [8] of 50 M⁻¹ s⁻¹.
